This is an account of results in US20190367620A1 (Merck KGaA, published 2019).

Assay [1] has as its target T1, human FGFR1b-IIIc extracellular domain with a HIS tag (human, UniProt P11362 22-376).
T1 construct: also called huFGFR1b-IIIc; hFGFR1b-IIIc
T1 sequence: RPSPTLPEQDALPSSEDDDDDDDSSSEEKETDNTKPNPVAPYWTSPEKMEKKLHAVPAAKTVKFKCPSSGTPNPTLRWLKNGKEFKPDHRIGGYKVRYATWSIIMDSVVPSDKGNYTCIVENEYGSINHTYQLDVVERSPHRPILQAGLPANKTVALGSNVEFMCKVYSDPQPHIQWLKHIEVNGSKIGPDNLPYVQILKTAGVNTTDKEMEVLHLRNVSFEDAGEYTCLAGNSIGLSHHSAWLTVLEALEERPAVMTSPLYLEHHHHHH
The assay is described as follows: ELISA, EC50 from OD450 curves, IgG1 format. As for the experimental part: (§1) The binding selectivity of the antibodies were tested by ELISA against the different FGFR family members: FGFR1, FGFR2, FGFR3 and FGFR4. Briefly plates were coated overnight with the different His6-tagged FGFR proteins, after blocking with 1% Bovine Serum albumin, 1 or 0.1 μg/ml of anti-FGFR1 antibodies were incubated for 1 h at room temperature. After washing, the bound antibodies were incubated for 1 h at room temperature with a peroxidase affiniPure F(ab′)2 Fragment goat anti-human Fc (Jackson ImmunoResearch Laboratories #109-036-098) and detection was performed using the TMB HRP Substrate solution (BioFx Lab # TMBW-1000-01).
The antibody #A08 both as an IgG1 (bivalent) and as a SEEDbody (monovalent), was affinity matured using the yeast display technology described in (Rhiel et al. 2014) and performing light chain shuffling from immunized OmniRats and naïve human library followed by CDR-H3 parsimonious mutagenesis. Following several sorting rounds, yeast clones were picked, unique clones were reformatted as described in Examples 1.6 and 3.1. The binding affinities of the anti-FGFR1 molecules against human FGFR1b-IIIb) and human FGFR1b-IIIc) were measured by ELISA using a similar protocol as described in Example 1.9. The OD450 was plotted against the antibody concentration and GraphPad Prism software was used to calculate EC₅₀ values (see FIG. 10). […]
On the technique in general: An ELISA detects its analyte on a solid surface through an enzyme-linked reagent.

For assay [2], the target named is T2, human FGFR1b-IIIb extracellular domain with a HIS tag (human).
T2 construct: also called huFGFR1b-IIIb; hFGFR1b-IIIb
T2 chain: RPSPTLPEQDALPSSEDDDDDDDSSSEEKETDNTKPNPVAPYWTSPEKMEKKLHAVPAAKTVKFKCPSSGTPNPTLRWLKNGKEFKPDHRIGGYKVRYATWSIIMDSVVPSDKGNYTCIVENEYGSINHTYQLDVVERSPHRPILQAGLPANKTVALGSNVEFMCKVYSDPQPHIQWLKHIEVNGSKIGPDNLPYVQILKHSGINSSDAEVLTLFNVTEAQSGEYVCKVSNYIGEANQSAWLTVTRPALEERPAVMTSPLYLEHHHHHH
As to the kind of experiment: SPR (BIAcore), IgG1 format; target IIIb by paragraph 74 and paragraph 125, the table's title says IIIc. The procedure: (§2) Binding affinities of anti-FGFR1 antibodies to FGFR1 were measured by Surface Plasmon Resonance (SPR) using a GE Healthcare BIAcore 4000 instrument as follows. Goat anti-human Fc antibody (Jackson ImmunoResearch Laboratories #109-005-098) was first immobilized on BIAcore carboxymethylated dextran CM5 chip using direct coupling to free amino groups following the procedure described by the manufacturer. Antibodies were then captured on the CM5 biosensor chip to achieve approximately 200 response units (RU). Binding measurements were performed using the running HBS-EP+ buffer. A 2-fold dilution series of His-tagged FGFR1 proteins were injected at a flow rate of 30 μl/min at 25° C. Association rates (kₒₙ, per mol/s) and dissociation rates (koff, per s) were calculated using a simple 1:1 Langmuir binding model (Biacore 4000 Evaluation Software). The equilibrium dissociation constant (KD, mol) was calculated as the ratio of koff/kₒₙ.
(§3) The affinities to human FGFR1b-IIIb for the affinity matured clones reformatted as IgG and monovalent SEEDbodies were measured by BIAcore (using a protocol similar to the one described in Example 1.8) and compared to those of mAb #08 (Table 5).
A general note: Surface plasmon resonance follows binding to a sensor surface in real time, without labels.

Assay [3] has as its target T1, human FGFR1b-IIIc extracellular domain …. As to the kind of experiment: ELISA, EC50 from OD450 curves, monovalent SEEDbody format. The procedure: as §1
The antibody #A08 both as an IgG1 (bivalent) and as a SEEDbody (monovalent), was affinity matured using the yeast display technology described in (Rhiel et al. 2014) and performing light chain shuffling from immunized OmniRats and naïve human library followed by CDR-H3 parsimonious mutagenesis. Following several sorting rounds, yeast clones were picked, unique clones were reformatted as described in Examples 1.6 and 3.1. The binding affinities of the anti-FGFR1 molecules against human FGFR1b-IIIb) and human FGFR1b-IIIc) were measured by ELISA using a similar protocol as described in Example 1.9. The OD450 was plotted against the antibody concentration and GraphPad Prism software was used to calculate EC₅₀ values (see FIG. 10). […] The best results were obtained with mAb #A02 and #C01 showing an EC50 improvement in both IgG1 and SEEDbody formats.

Assay [4] addresses T2, human FGFR1b-IIIb extracellular domain …. The assay is described as follows: SPR (BIAcore), SEEDbody format; target IIIb by paragraph 74 and paragraph 125, the table's title says IIIc. The procedure:
as §2, §3

B1: mAb #A02 IgG1 (antibody, V domains shown)
VH: QVQLQESGPGLVKPSGTLSLTCAVSGGSISSNNWWSWVRQPPGKGLEWIGEIYHSGSTSYNPSLKSRVTISVDKSKNQFSLKLSSVTAADTAVYYCARATDWFDLWGQGTLVTVSS
VL: SYVLTQPPSVSVAPGQTARITCGGNNIGSESVHWYQQKPGQAPVLVVYDDSDRPSGIPERFSGSNSGNTATLTISRVEAGDEADYYCQVWDSTSDHRVFGGGTKLTVL
notes: constant regions not tied
In the case of B1, the binding result in assay [1] is “binds”. In addition, the dissociation constant (Kd) in assay [2] was found to be 0.05 nM.

B2: #A07 IgG1 (antibody, V domains shown)
VH: QVQLQESGPGLVKPSGTLSLTCAVSGGSISSNNWWSWVRQPPGKGLEWIGEIYHSGSTSYNPSLKSRVTISVDKSKNQFSLKLSSVTAADTAVYYCARGTDWYDPWGQGTLVTVSS
VL: SYVLTQPPSVSVAPGQTARITCGGNNIGSESVHWYQQKPGQAPVLVVYDDSDRPSGIPERFSGSNSGNTATLTISRVEAGDEADYYCQVWDSTSDHRVFGGGTKLTVLG
notes: heavy constant region not tied
The molecule B2 had a Kd in assay [2] of 0.06 nM.

B3: #B10 IgG1 (antibody, V domains shown)
VH: QVQLQESGPGLVKPSGTLSLTCAVSGGSISSNNWWSWVRQPPGKGLEWIGEIYHSGSTSYNPSLKSRVTISVDKSKNQFSLKLSSVTAADTAVYYCARATDWYDPWGQGTLVTVSS
VL: SYVLTQPPSVSVAPGQTARITCGGNNIGSESVHWYQQKPGQAPVLVVYDDSDRPSGIPERFSGSNSGNTATLTISRVEAGDEADYYCQVWDSTSDHRVFGGGTKLTVLG
notes: as for B2
Take B3: the Kd in assay [2] came to 0.02 nM.

B4: mAb #C01 IgG1 (antibody, V domains shown)
VH: QVQLQESGPGLVKPSGTLSLTCAVSGGSISSNNWWSWVRQPPGKGLEWIGEIYHSGSTSYNPSLKSRVTISVDKSKNQFSLKLSSVTAADTAVYYCARATDWFDAWGQGTLVTVSS
VL: SYVLTQPPSVSVAPGQTARITCGGNNIGSESVHWYQQKPGQAPVLVVYDDSDRPSGIPERFSGSNSGNTATLTISRVEAGDEADYYCQVWDSTSDHRVFGGGTKLTVL
notes: constant regions not tied
For the molecule B4, the binding result in assay [1] is reported as “binds”. In assay [2], this molecule showed a dissociation constant (Kd) of 0.03 nM.

B5: mAb #D01 IgG1 (antibody, V domains shown)
VH: QVQLQESGPGLVKPSGTLSLTCAVSGGSISSNNWWSWVRQPPGKGLEWIGEIYHSGSTSYNPSLKSRVTISVDKSKNQFSLKLSSVTAADTAVYYCARATDWFDHWGQGTLVTVSS
VL: SYVLTQPPSVSVAPGQTARITCGGNNIGSESVHWYQQKPGQAPVLVVYDDSDRPSGIPERFSGSNSGNTATLTISRVEAGDEADYYCQVWDSTSDHRVFGGGTKLTVLG
notes: as for B2
Turning to B5, the Kd in assay [2] was found to be 0.03 nM.

B6: #D01 SEEDbody (monovalent) (antibody)
heavy: QVQLQESGPGLVKPSGTLSLTCAVSGGSISSNNWWSWVRQPPGKGLEWIGEIYHSGSTSYNPSLKSRVTISVDKSKNQFSLKLSSVTAADTAVYYCARATDWFDHWGQGTLVTVSSASTKGPSVFPLAPSSKSTSGGTAALGCLVKDYFPEPVTVSWNSGALTSGVHTFPAVLQSSGLYSLSSVVTVPSSSLGTQTYICNVNHKPSNTKVDKRVEPKSCDKTHTCPPCPAPELLGGPSVFLFPPKPKDTLMISRTPEVTCVVVDVSHEDPEVKFNWYVDGVEVHNAKTKPREEQYNSTYRVVSVLTVLHQDWLNGKEYKCKVSNKALPAPIEKTISKAKGQPFRPEVHLLPPSREEMTKNQVSLTCLARGFYPKDIAVEWESNGQPENNYKTTPSRQEPSQGTTTFAVTSKLTVDKSRWQQGNVFSCSVMHEALHNHYTQKTISLSPG
chain: EPKSSDKTHTCPPCPAPELLGGPSVFLFPPKPKDTLMISRTPEVTCVVVDVSHEDPEVKFNWYVDGVEVHNAKTKPREEQYNSTYRVVSVLTVLHQDWLNGKEYKCKVSNKALPAPIEKTISKAKGQPREPQVYTLPPPSEELALNELVTLTCLVKGFYPSDIAVEWLQGSQELPREKYLTWAPVLDSDGSFFLYSILRVAAEDWKKGDTFSCSVMHEALHNHYTQKSLDRSPG
light: SYVLTQPPSVSVAPGQTARITCGGNNIGSESVHWYQQKPGQAPVLVVYDDSDRPSGIPERFSGSNSGNTATLTISRVEAGDEADYYCQVWDSTSDHRVFGGGTKLTVLGQPKAAPSVTLFPPSSEELQANKATLVCLISDFYPGAVTVAWKADSSPVKAGVETTTPSKQSNNKYAASSYLSLTPEQWKSHKSYSCQVTHEGSTVEKTVAPTECS
notes: also called #D01-SEED(AG)
For B6, the binding result in assay [3] is recorded as “binds”. Moreover, in assay [4], the affinity, expressed as Kd, was 0.05 nM.

B7: SEEDbody #A07 (monovalent) (antibody)
heavy: QVQLQESGPGLVKPSGTLSLTCAVSGGSISSNNWWSWVRQPPGKGLEWIGEIYHSGSTSYNPSLKSRVTISVDKSKNQFSLKLSSVTAADTAVYYCARGTDWYDPWGQGTLVTVSSASTKGPSVFPLAPSSKSTSGGTAALGCLVKDYFPEPVTVSWNSGALTSGVHTFPAVLQSSGLYSLSSVVTVPSSSLGTQTYICNVNHKPSNTKVDKRVEPKSCDKTHTCPPCPAPELLGGPSVFLFPPKPKDTLMISRTPEVTCVVVDVSHEDPEVKFNWYVDGVEVHNAKTKPREEQYNSTYRVVSVLTVLHQDWLNGKEYKCKVSNKALPAPIEKTISKAKGQPFRPEVHLLPPSREEMTKNQVSLTCLARGFYPKDIAVEWESNGQPENNYKTTPSRQEPSQGTTTFAVTSKLTVDKSRWQQGNVFSCSVMHEALHNHYTQKTISLSPG
chain: EPKSSDKTHTCPPCPAPELLGGPSVFLFPPKPKDTLMISRTPEVTCVVVDVSHEDPEVKFNWYVDGVEVHNAKTKPREEQYNSTYRVVSVLTVLHQDWLNGKEYKCKVSNKALPAPIEKTISKAKGQPREPQVYTLPPPSEELALNELVTLTCLVKGFYPSDIAVEWLQGSQELPREKYLTWAPVLDSDGSFFLYSILRVAAEDWKKGDTFSCSVMHEALHNHYTQKSLDRSPG
light: SYVLTQPPSVSVAPGQTARITCGGNNIGSESVHWYQQKPGQAPVLVVYDDSDRPSGIPERFSGSNSGNTATLTISRVEAGDEADYYCQVWDSTSDHRVFGGGTKLTVLGQPKAAPSVTLFPPSSEELQANKATLVCLISDFYPGAVTVAWKADSSPVKAGVETTTPSKQSNNKYAASSYLSLTPEQWKSHKSYSCQVTHEGSTVEKTVAPTECS
notes: also called #A07-SEED(AG)
On to B7, for which the binding result in assay [3] was “binds”. Besides, binding in assay [4] was put at a Kd of 0.04 nM.

Usually Kd stands for the free concentration of one partner at which half of the binding sites on the other are occupied at equilibrium, for simple one-to-one binding. Read a low Kd as higher affinity.
